Measurements reported in patent publication US6949349.
Positions of bridges follow the written chain, without caps; N, C: chain ends. No end group written: not given here.

Columns and labels:
IGFBP-1 [1] = target: T1, IGFBP-1 (human, UniProt P08833 26-259); assay: ELISA plate assay (starred peptide): peptide inhibits IGFBP-1 binding to IGF-I; ratio against bp1-14
T1 construct: Biotinylated in the ELISA assays; also called rhIGFBP-1
T1 sequence (looked up): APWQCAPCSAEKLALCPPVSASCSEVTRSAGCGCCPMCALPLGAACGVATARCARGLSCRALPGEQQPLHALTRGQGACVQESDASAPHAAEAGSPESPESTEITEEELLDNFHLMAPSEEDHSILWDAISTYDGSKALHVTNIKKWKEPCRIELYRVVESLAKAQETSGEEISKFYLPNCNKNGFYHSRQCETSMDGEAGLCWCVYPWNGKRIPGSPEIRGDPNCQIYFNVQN

IGFBP-1 [2] = target: T1, IGFBP-1; assay: ELISA plate assay (starred peptide): peptide inhibits IGFBP-1 binding to IGF-I; ratio against bp1-16
IGFBP-1 [3] = target: T1, IGFBP-1; assay: BIAcore competition: peptide inhibits IGFBP-1 binding to IGF-I; ratio against bp1-14
IGFBP-1 [4] = target: T1, IGFBP-1; assay: BIAcore competition: peptide inhibits IGFBP-1 binding to IGF-I; ratio against bp1-16
IGFBP-1 [5] = target: T1, IGFBP-1; assay: BIAcore competition: peptide inhibits IGFBP-1 binding to IGF-I; the reference bp1-16 itself
IGFBP-1 [6] = target: T1, IGFBP-1; assay: BIAcore competition (starred): peptide inhibits IGFBP-1 binding to IGF-I; ratio to bp1-01 (wt)
IGFBP-1 [7] = target: T1, IGFBP-1; assay: ELISA competition: peptide inhibits IGFBP-1 binding to IGF-I; the reference itself
IGFBP-1 [8] = target: T1, IGFBP-1; assay: ELISA plate assay: peptide inhibits IGFBP-1 binding to IGF-I; the reference itself
IGFBP-1 [9] = target: T1, IGFBP-1; assay: BIAcore competition: peptide inhibits IGFBP-1 binding to IGF-I; the reference itself
IGFBP-1 [10] = target: T1, IGFBP-1; assay: BIAcore competition: peptide inhibits IGFBP-1 binding to IGF-II; the reference itself
IGFBP-1 [11] = target: T1, IGFBP-1; assay: BIAcore competition: peptide inhibits IGFBP-1 binding to IGF-I; position 3 is Ala in the wt
IGFBP-1 [12] = target: T1, IGFBP-1; assay: biotinylated-IGFBP-1 ELISA: peptide inhibits IGFBP-1 binding to IGF-I; the reference itself
From the text: (§1) The peptide/IGFBP mix was then removed and the plate was washed ten times with PBS buffer containing 0.05% TWEEN-20™ surfactant.

IGFBP-1 [13] = target: T1, IGFBP-1; assay: BIAcore competition: peptide inhibits IGFBP-1 binding to IGF-II; position 3 is Ala in the wt
[14] = target: T2, recombinant human IGFBP-1 (human, UniProt P08833 26-259); assay: cell-based or functional assay
T2 sequence (looked up): T1 sequence (looked up)

[15] = target: T2, recombinant human IGFBP-1; assay: ELISA: peptide dilutions with 20 nM biotinylated IGFBP-1 on IGF-I coated plate
From the text: as §1

[16] = target: T3, recombinant human IGFBP-3 (human, UniProt P17936 28-291); assay: phage ELISA on IGFBP-3 plate, 50-fold phage dilution, with/without 100 nM IGF-I as competitor (FIG. 29)
T3 construct: also called rhIGFBP-3
Protocol: (§2) The plates were then washed ten times, as above, and a solution of rabbit anti-phage antibody mixed with a goat-anti-rabbit conjugate of horse radish peroxidase was added. After an incubation of 1 hour at room temperature, the plates were developed with a chromogenic substrate, o-phenylenediamine (Sigma). The reaction was stopped with addition of ½ volume of 2.5 M H_2SO_4. Optical density at 490 nm was measured on a spectrophotometric plate reader.
In each case, the phagemid clone was grown from a single colony overnight at 37° C. in a culture volume of 5 ml. The phage particles were precipitated and resuspended in 0.5 ml of PBS buffer.

[17] = target: T3, recombinant human IGFBP-3; assay: cell-based or functional assay
[18] = target: T2, recombinant human IGFBP-1; assay: phage ELISA titration on IGFBP-1 plate with IGF-I (FIG. 28)
Protocol: as §2

IGFBP-3 = target: T4, IGFBP-3 (human, UniProt P17936 28-291); assay: BIAcore competition: peptide inhibits IGFBP-3 binding to IGF-I; the reference itself
T4 construct: also called rhIGFBP-3

IGFBP-1 [19] = target: T1, IGFBP-1; assay: ELISA competition: peptide inhibits IGFBP-1 binding to IGF-I; ratio to bp1-01 (wt)
[20] = target: T3, recombinant human IGFBP-3; assay: BIAcore competition: peptide dilutions with 20 nM IGFBP-3 over immobilized IGF-II
Protocol: IGF-II was immobilized on a dextran chip for inhibition assays using a BIAcore™ 2000 surface-plasmon-resonance device (BIAcore, Inc., Piscataway, N.J.) to measure free binding protein. IGF-II was biotinylated as described above, and injected over a chip to which streptavidin had been coupled (BIAcore, Inc.) to give approximately 1500 RU of immobilized IGF-II. […] After incubation for ≧1 hour at room temperature, an aliquot of 20 µl was injected at a flow rate of 20 µl/min over the IGF-II chip.

T3 sequence (P17936 28-291 limits assumed): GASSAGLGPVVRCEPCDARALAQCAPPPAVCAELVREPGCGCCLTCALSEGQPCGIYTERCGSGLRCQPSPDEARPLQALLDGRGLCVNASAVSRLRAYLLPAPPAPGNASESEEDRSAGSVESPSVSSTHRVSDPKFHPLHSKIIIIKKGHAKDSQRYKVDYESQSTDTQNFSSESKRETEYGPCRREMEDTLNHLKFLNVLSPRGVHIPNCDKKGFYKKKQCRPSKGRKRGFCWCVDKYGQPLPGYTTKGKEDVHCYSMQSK
T4 sequence (P17936 28-291 limits assumed): as above

Binder: SEMVCRAGPLQWLCEIYF-NH2 (disulfide 5-14 (inferred), g3 bp1-01 selectant) [bp1-19]
- IC50 (114)/IC50 (mut) (IGFBP-1 [1]): 2.1 ratio
- IC50 (116)/IC50 (mut) (IGFBP-1 [2]): 9.9 ratio

Binder: SEVGCRAGPLQWLCEKYFSTY-NH2 (disulfide 5-14 (inferred), g3 bp1-01 selectant) [bp1-21A]
- IC50 (114)/IC50 (mut) (IGFBP-1 [3]): 3.2 ratio
- IC50 (116)/IC50 (mut) (IGFBP-1 [4]): 15 ratio

Binder: CRAGPLQWLCEKYFSTY-NH2 (disulfide 1-10 (inferred), g3 bp1-01 selectant) [bp1-21B]
- IC50 (114)/IC50 (mut) (IGFBP-1 [3]): 0.67 ratio
- IC50 (116)/IC50 (mut) (IGFBP-1 [4]): 3.1 ratio

Binder: CRAGPLQWLCEKYF-NH2 (disulfide 1-10 (inferred), bp1-01 lacking the C-terminal Gly) [bp1-16]
- IC50 (114)/IC50 (mut) (IGFBP-1 [3]): 0.21 ratio
- IC50 (116)/IC50 (mut) (IGFBP-1 [5]): 1 ratio

Binder: CRKGPLQWLCELYF (g8 bp1-01 selectant) [bp1-10]
- IC50 (mut)/IC50 (wt) (IGFBP-1 [6]): 1.1 ratio

Binder: CRKGPLQWLCEKYF (g8 bp1-01 selectant) [bp1-11]
- IC50 (mut)/IC50 (wt) (IGFBP-1 [6]): 1.9 ratio

B1: bp1-01 (peptide)
peptide: CRAGPLQWLCEKYFG-NH2
modifications: disulfide 1-10; N-terminus assumed
SMILES: CC(C)C[C@@H]1NC(=O)[C@H](Cc2c[nH]c3ccccc23)NC(=O)[C@H](CCC(N)=O)NC(=O)[C@H](CC(C)C)NC(=O)[C@@H]2CCCN2C(=O)CNC(=O)[C@H](C)NC(=O)[C@H](CCCNC(=N)N)NC(=O)[C@@H](N)CSSC[C@@H](C(=O)N[C@@H](CCC(=O)O)C(=O)N[C@@H](CCCCN)C(=O)N[C@@H](Cc2ccc(O)cc2)C(=O)N[C@@H](Cc2ccccc2)C(=O)NCC(N)=O)NC1=O
notes: Synthetic 15-mer; also called (wt); A3
- IC50 (mut)/IC50 (wt) (IGFBP-1 [7]): 1 ratio
- IC50 (mut)/IC50 (wt) (IGFBP-1 [8]): 1 ratio
- IC50 (mut)/IC50 (wt) (IGFBP-1 [9]): 1 ratio
- IC50 (mut)/IC50 (wt) (IGFBP-1 [10]): 1 ratio
- IC50 (mut)/IC50 (wt) (IGFBP-1 [11]): 1 ratio
- IC50 (mut)/IC50 (wt) (IGFBP-1 [12]): 1 ratio
- IC50 (mut)/IC50 (wt) (IGFBP-1 [13]): 1 ratio

B2: bp1-02 (peptide)
peptide: SEVGCRAGPLQWLCEKYFG-NH2
modifications: disulfide 5-14; N-terminus assumed
SMILES: CC(C)C[C@@H]1NC(=O)[C@H](Cc2c[nH]c3ccccc23)NC(=O)[C@H](CCC(N)=O)NC(=O)[C@H](CC(C)C)NC(=O)[C@@H]2CCCN2C(=O)CNC(=O)[C@H](C)NC(=O)[C@H](CCCNC(=N)N)NC(=O)[C@@H](NC(=O)CNC(=O)[C@@H](NC(=O)[C@H](CCC(=O)O)NC(=O)[C@@H](N)CO)C(C)C)CSSC[C@@H](C(=O)N[C@@H](CCC(=O)O)C(=O)N[C@@H](CCCCN)C(=O)N[C@@H](Cc2ccc(O)cc2)C(=O)N[C@@H](Cc2ccccc2)C(=O)NCC(N)=O)NC1=O
notes: 19-mer variant of bp1-01; also called bp1-02 (bp3)
- IC50, KIRA assay (peptide plus IGF-I plus IGFBP-1) [14]: 187 nM
- IC50 [15]: 50 nM

B3: peptide-phage clone 4D3.9 (g8 display) (peptide, not shown: large carriers)
chain: ETVANCDCYMDLCLCYGSDR
modifications: cysteine pairing not given here; also: C-terminal fusion to linker and M13 g8p, phage-displayed
notes: Tested as a whole phage particle with polyvalent display
- percent inhibition of phage binding by IGF-I [16]: > 40%

Binder: SEEVCWPVAEWYLCN (disulfide 5-14) [BP15]
- IC50, KIRA assay (peptide with IGFBP-3:IGF-1 at a 3:1 ratio) [17]: 95000 nM

B4: bp1-01 (peptide)
peptide: CRAGPLQWLCEKYFG-NH2
modifications: disulfide 1-10; N-terminus assumed
SMILES: CC(C)C[C@@H]1NC(=O)[C@H](Cc2c[nH]c3ccccc23)NC(=O)[C@H](CCC(N)=O)NC(=O)[C@H](CC(C)C)NC(=O)[C@@H]2CCCN2C(=O)CNC(=O)[C@H](C)NC(=O)[C@H](CCCNC(=N)N)NC(=O)[C@@H](N)CSSC[C@@H](C(=O)N[C@@H](CCC(=O)O)C(=O)N[C@@H](CCCCN)C(=O)N[C@@H](Cc2ccc(O)cc2)C(=O)N[C@@H](Cc2ccccc2)C(=O)NCC(N)=O)NC1=O
notes: also called bp1-01 (bp3)
- IC50, KIRA assay (peptide plus IGF-I plus IGFBP-1) [14]: 397 nM
- IC50 [15]: 180 nM

B5: peptide-phage clone HL-1 (g8 display) (peptide, not shown: large carriers)
chain: SEVGCRAGPLQWLCEKYF
modifications: not fully specified (C-terminus, bridges); cysteine pairing not given here; also: polyvalent display on phage particle
notes: Tested as a whole phage particle with polyvalent display; also called g8-phage peptide bp1-01
- binding result [18]: binds

Binder: SEEVCWPVAEWYLCNMWG (disulfide 5-14) [bp3-01-ox]
- IC50 (mut)/IC50 (wt) (IGFBP-3): 1 ratio

Binder: CKEGPLQWLCEKYF (g8 bp1-01 selectant) [bp1-12]
- IC50 (mut)/IC50 (wt) (IGFBP-1 [6]): 2.9 ratio

Binder: CKEGPLLWLCEKYF (g8 bp1-01 selectant) [bp1-13]
- IC50 (mut)/IC50 (wt) (IGFBP-1 [6]): 2.5 ratio

Binder: CRAGPLQWLCEKAA [bp1-18]
- IC50 (mut)/IC50 (wt) (IGFBP-1 [19]): 148 ratio

Binder: EARVCRAGPLQWLCEKYF-NH2 (disulfide 5-14 (inferred), g3 bp1-01 selectant) [bp1-20]
- IC50 (114)/IC50 (mut) (IGFBP-1 [3]): 2.6 ratio
- IC50 (116)/IC50 (mut) (IGFBP-1 [4]): 12 ratio

B6: peptide-phage clone 4D3.12 (g8 display) (peptide, not shown: large carriers)
chain: AEWAECWIAGDQLLCVGKDN
modifications: not fully specified (C-terminus, bridges); cysteine pairing not given here; also: polyvalent display on phage particle
notes: as for B3
- percent inhibition of phage binding by IGF-I [16]: > 40%

B7: BP3-4D3.11 (peptide)
peptide: VAWEVCWDRHDQGYICTTDS
modifications: disulfide 6-16
notes: Synthetic peptide corresponding to phage clone 4D3.11 (g8) and 3Bi.1 (g3); also called BP14; BP3-4D3.11 (BP14)
- IC50 [20]: 1000 nM
